Reference: paper PMC5777261 (The Journal of Biological Chemistry, 2017)
pIC50: −log10 of the molar value.

Experiments:
Test in all cases: radioligand binding; HEK293 cells expressing ACKR3-YFP or mutants, pretreated 5 min at 37 °C with 100 μM phenylarsine oxide; 50 pM 125I-CXCL12 tracer in 50 mM HEPES pH 7.4, 5 mM MgCl2, 1 mM CaCl2, 0.2% BSA, with or without unlabeled CXCL12 or CXCL11, 30 min at 37 °C; bound label counted in a γ counter; IC50 taken as proxy for ligand affinity
[1] = target: ACKR3 N127K-YFP (UniProt P25106)
Sequence of ACKR3 N127K-YFP (P25106 whole entry N127K, the tested form may be a part): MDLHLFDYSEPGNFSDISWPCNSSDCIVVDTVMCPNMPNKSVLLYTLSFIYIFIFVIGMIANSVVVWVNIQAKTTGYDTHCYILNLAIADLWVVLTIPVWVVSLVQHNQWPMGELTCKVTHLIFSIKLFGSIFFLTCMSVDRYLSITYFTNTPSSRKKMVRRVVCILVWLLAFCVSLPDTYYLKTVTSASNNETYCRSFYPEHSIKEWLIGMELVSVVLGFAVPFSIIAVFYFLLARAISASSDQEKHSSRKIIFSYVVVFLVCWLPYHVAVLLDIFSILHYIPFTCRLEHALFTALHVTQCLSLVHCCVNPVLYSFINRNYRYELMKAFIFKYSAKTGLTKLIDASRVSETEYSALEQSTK

[2] = target: ACKR3-YFP (wildtype ACKR3 fused C-terminally to YFP) (UniProt P25106)
Sequence of ACKR3-YFP (wildtype ACKR3 fused C-terminally to YFP) (P25106 whole entry, the tested form may be a part): as the sequence (P25106 whole entry N127K, the tested form may be a part) above, with K127N counted along it

[3] = target: ACKR3 D141N-YFP (UniProt P25106)
Sequence of ACKR3 D141N-YFP (P25106 whole entry D141N): as the sequence (P25106 whole entry N127K, the tested form may be a part) above, with K127N, D141N counted along it

[4] = target: ACKR3 Y315A-YFP (UniProt P25106)
Sequence of ACKR3 Y315A-YFP (P25106 whole entry Y315A): as the sequence (P25106 whole entry N127K, the tested form may be a part) above, with K127N, Y315A counted along it

[5] = target: ACKR3 Y143A-YFP (UniProt P25106)
Sequence of ACKR3 Y143A-YFP (P25106 whole entry Y143A): as the sequence (P25106 whole entry N127K, the tested form may be a part) above, with K127N, Y143A counted along it

[6] = target: ACKR3 N127D-YFP (UniProt P25106)
Sequence of ACKR3 N127D-YFP (P25106 whole entry N127D): as the sequence (P25106 whole entry N127K, the tested form may be a part) above, with K127D counted along it

[7] = target: ACKR3 D90N-YFP (UniProt P25106)
Sequence of ACKR3 D90N-YFP (P25106 whole entry D90N): as the sequence (P25106 whole entry N127K, the tested form may be a part) above, with D90N, K127N counted along it

[8] = target: ACKR3 N127S-YFP (UniProt P25106)
Sequence of ACKR3 N127S-YFP (P25106 whole entry N127S): as the sequence (P25106 whole entry N127K, the tested form may be a part) above, with K127S counted along it

[9] = target: ACKR3 R142A-YFP (UniProt P25106)
Sequence of ACKR3 R142A-YFP (P25106 whole entry R142A): as the sequence (P25106 whole entry N127K, the tested form may be a part) above, with K127N, R142A counted along it

Sequence of CXCL12 (unlabeled recombinant chemokine) (P48061 22-93): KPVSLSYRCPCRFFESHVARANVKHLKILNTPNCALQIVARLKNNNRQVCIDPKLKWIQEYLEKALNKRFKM
Sequence of ^125I-CXCL12 radiolabel tracer (P48061 22-93): as above

## ^125I-CXCL12 radiolabel tracer (from UniProt P48061 22-93) (ligand)
[1]
  125I-CXCL12 tracer binding, % of ACKR3 (the pair that is blocked): 83%
[2]
  125I-CXCL12 tracer binding, % of ACKR3 (the pair that is blocked): 100%
[3]
  125I-CXCL12 tracer binding, % of ACKR3 (the pair that is blocked): 64%
[4]
  125I-CXCL12 tracer binding, % of ACKR3 (the pair that is blocked): 69%
[5]
  125I-CXCL12 tracer binding, % of ACKR3 (the pair that is blocked): 93%
[6]
  125I-CXCL12 tracer binding, % of ACKR3 (the pair that is blocked): 70%
[7]
  125I-CXCL12 tracer binding, % of ACKR3 (the pair that is blocked): 92%
[8]
  125I-CXCL12 tracer binding, % of ACKR3 (the pair that is blocked): 87%
[9]
  125I-CXCL12 tracer binding, % of ACKR3 (the pair that is blocked): 66%

## CXCL12 (unlabeled recombinant chemokine) (from UniProt P48061 22-93) (ligand)
[1]
  pIC50: 8.00
  Log IC50: -8.1
[2]
  pIC50: 8.23
  Log IC50: -8.2
[3]
  Log IC50: -9.1
[4]
  pIC50: 7.61
  Log IC50: -7.7
[5]
  pIC50: 8.52
  Log IC50: -8.5
[6]
  pIC50: 7.96
  Log IC50: -8.2
[7]
  pIC50: 7.92
  Log IC50: -7.9
[8]
  pIC50: 8.77
  Log IC50: -8.8
[9]
  pIC50: 7.35
  Log IC50: -7.4
